Each block holds one binder with its values, some of them ahead of it.
Assays:
Human CD33-V-HSA [1] = target: T1, Human CD33-V-HSA (human); test: SPRi off-rate screen, domain constructs
T1 construct: V domain of human CD33 fused to HSA (C58S) and six-histidine tag; also called C33W3; huCD33-V-HSA

Human CD33-C2-HSA [2] = target: T2, Human CD33-C2-HSA (human); test: SPRi off-rate screen, domain constructs
T2 construct: C2 domain of human CD33 fused to HSA (C58S) and six-histidine tag; also called C33W4; huCD33-C2-HSA

Human CD33-V-HSA [3] = target: T3, Human CD33-V-HSA (human); test: IBIS SPRi off-rate screen
T3 construct: V domain of human CD33 fused to HSA; also called C33W3; huCD33-V-HSA

Human CD33-C2-HSA [4] = target: T4, Human CD33-C2-HSA (human); test: IBIS SPRi off-rate screen
T4 construct: C2 domain of human CD33 fused to HSA; also called C33W4; huCD33-C2-HSA

[5] = target: T5, Cyno CD33 full length (over-expressed on transduced HEK293F / HEK 293T cells) (cyno); test: flow cytometry, HEK293F cells expressing cyno CD33
T5 construct: also called cyCD33; cyno CD33 expressing cells
T5 sequence (chain, as listed by the source limits assumed): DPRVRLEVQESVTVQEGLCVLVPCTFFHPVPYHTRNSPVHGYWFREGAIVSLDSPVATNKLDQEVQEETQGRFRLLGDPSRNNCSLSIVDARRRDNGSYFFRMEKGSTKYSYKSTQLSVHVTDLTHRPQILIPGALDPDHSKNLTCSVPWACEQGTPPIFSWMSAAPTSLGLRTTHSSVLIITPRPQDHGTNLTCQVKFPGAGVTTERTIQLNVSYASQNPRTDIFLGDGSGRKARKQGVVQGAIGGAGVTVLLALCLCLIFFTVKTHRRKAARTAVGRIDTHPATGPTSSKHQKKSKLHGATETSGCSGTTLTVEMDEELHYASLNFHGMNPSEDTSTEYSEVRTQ
Procedure: (§1) The purified antibodies were assessed for binding to stably transfected HEK293F cells expressing human CD33 or cyno CD33 (generation described above) along with the parental HEK293F as negative control. Cells were harvested from tissue culture flasks using non-enzymatic dissociation buffer (Thermo Scientific). The flasks were rinsed twice with PBS and dissociation buffer was added to the flask, and the flask was incubated for 10 minutes at 37° C. until the cells became non-adherent. The cells were centrifuged at 300 g for 5 minutes and resuspended at 1.0×10⁶ cells/ml in staining buffer (Becton Dickinson; Franklin Lakes, N.J.). 50,000 cells/well of each cell type was plated in 50 μl of staining buffer in round bottom plates (Becton Dickinson). 50 μl of 2× concentration test mAb or isotype control was added at 3 dilutions and zero (120 nM, 12 nM, and 1.2 nM and 0 nM), and the resultant solution was incubated 30 min at 4° C. […] 30 ul running buffer containing Sytox Green live/dead dye (ThermoFisher) was added to all wells with cells and the plates were read on an iQue IntelliCyt flow cytometer. […] Antibody binding was assessed by the mean fluorescence intensity in the AF647 channel. […]

[6] = target: T6, Human CD33 full length (over-expressed on transduced HEK293F cells) (human, UniProt P20138 18-364); test: flow cytometry, HEK293F cells expressing human CD33
T6 construct: also called huCD33; human CD33 expressing cells
T6 sequence (P20138 18-364 limits assumed): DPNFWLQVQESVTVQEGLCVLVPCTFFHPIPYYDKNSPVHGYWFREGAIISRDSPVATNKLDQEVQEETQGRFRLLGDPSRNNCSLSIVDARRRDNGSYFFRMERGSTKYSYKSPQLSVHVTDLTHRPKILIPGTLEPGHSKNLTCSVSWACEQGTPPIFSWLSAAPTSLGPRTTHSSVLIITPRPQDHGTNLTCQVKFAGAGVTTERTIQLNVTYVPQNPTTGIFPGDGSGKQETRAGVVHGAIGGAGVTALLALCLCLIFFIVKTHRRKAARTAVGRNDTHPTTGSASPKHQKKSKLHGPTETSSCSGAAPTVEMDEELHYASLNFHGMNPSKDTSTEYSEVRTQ
Procedure: as §1

[7] = target: T7, human recombinant (r)CD33 (human, UniProt P20138 18-259); test: method not stated
T7 construct: also called human rCD33
T7 sequence (P20138 18-259 limits assumed): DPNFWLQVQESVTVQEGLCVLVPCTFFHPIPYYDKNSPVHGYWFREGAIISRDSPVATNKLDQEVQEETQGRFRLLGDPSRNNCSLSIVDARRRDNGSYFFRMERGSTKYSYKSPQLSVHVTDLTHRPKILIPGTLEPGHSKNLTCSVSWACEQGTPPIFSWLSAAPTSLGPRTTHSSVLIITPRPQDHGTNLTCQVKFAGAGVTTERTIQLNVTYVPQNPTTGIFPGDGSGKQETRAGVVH

[8] = target: cynomologous (cyno) rCD33 (cyno); test: method not stated
cynomologous (cyno) rCD33 (cyno), sequence (chain, as listed by the source limits assumed): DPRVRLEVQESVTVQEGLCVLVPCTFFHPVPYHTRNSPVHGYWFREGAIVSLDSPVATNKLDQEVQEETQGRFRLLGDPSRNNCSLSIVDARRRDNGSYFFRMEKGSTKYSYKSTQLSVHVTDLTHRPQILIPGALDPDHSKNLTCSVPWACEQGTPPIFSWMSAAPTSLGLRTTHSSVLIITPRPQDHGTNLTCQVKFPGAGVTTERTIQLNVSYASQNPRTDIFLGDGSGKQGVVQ

human rCD3e = target: T8, human rCD3e (human, UniProt P07766 23-126); test: method not stated
T8 construct: also called human recombinant CD3 epsilon
T8 sequence (P07766 23-126 limits assumed): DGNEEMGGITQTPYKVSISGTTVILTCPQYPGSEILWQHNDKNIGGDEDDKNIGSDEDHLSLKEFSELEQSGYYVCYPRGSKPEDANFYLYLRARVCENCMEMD

cyno monkey rCD3e = target: T9, cyno monkey rCD3e (cyno monkey, UniProt Q95LI5 22-117, limits assumed); test: method not stated
T9 construct: also called cyno recombinant CD3 epsilon
T9 sequence (looked up): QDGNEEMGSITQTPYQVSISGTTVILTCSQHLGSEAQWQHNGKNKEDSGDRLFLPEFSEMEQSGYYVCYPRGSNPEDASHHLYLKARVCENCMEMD

[9] = target: CD33 on human CD33 expressing AML cell lines and primary human cells (endogenous) (human, UniProt P20138 18-364); test: cell-based or functional assay
CD33 on human CD33 expressing AML cell lines and primary human cells (endogenous), sequence (P20138 18-364 limits assumed): as the sequence (P20138 18-364 limits assumed) above

B1: C33B782 (antibody, human IgG4 S228P, lambda, F234A L235A)
heavy: not shown
light: SYELTQPPSVSVSPGQTASITCSGNKLGAKFASWYQQKPGQSPVLVIYQDNKRPSGIPERFSGSNSGNTATLTISGTQAVDEADYYCQAWDSSTVVFGGGTKLTVLGQPKAAPSVTLFPPSSEELQANKATLVCLISDFYPGAVTVAWKADSSPVKAGVETTTPSKQSNNKYAASSYLSLTPEQWKSHRSYSCQVTHEGSTVEKTVAPTECS
notes: huIgG4 PAA; OMNIRat campaign; also called C33H72/C33L40
- binding result (Human CD33-V-HSA [1]): no binding
- binding result (Human CD33-C2-HSA [2]): no binding

B2: C33B778 (antibody, human IgG4 S228P, lambda, F234A L235A)
heavy: not shown
light: SYELTQPPSVSVSPGQTASITCSGDKLGDKYACWYQQKPGQSPVLVIYQDGKRPSGIPERFSGSNFGNKATLTISGTQAMDEADYYCQAWDRNTVVFGGGTKLTVLGQPKAAPSVTLFPPSSEELQANKATLVCLISDFYPGAVTVAWKADSSPVKAGVETTTPSKQSNNKYAASSYLSLTPEQWKSHRSYSCQVTHEGSTVEKTVAPTECS
notes: huIgG4 PAA; OMNIRat campaign; also called C33H66/C33L60
- binding result (Human CD33-V-HSA [1]): no binding

B3: C33B782 (antibody, human IgG4 S228P, lambda, F234A L235A)
heavy: not shown
light: SYELTQPPSVSVSPGQTASITCSGNKLGAKFASWYQQKPGQSPVLVIYQDNKRPSGIPERFSGSNSGNTATLTISGTQAVDEADYYCQAWDSSTVVFGGGTKLTVLGQPKAAPSVTLFPPSSEELQANKATLVCLISDFYPGAVTVAWKADSSPVKAGVETTTPSKQSNNKYAASSYLSLTPEQWKSHRSYSCQVTHEGSTVEKTVAPTECS
notes: huIgG4 PAA; HC C33H72, LC C33L40 (same V region as C33B77); also called C33F82
- binding result (Human CD33-V-HSA [3]): no binding
- binding result (Human CD33-C2-HSA [4]): no binding

B4: C33B778 (antibody, human IgG4 S228P, lambda, F234A L235A)
heavy: not shown
light: SYELTQPPSVSVSPGQTASITCSGDKLGDKYACWYQQKPGQSPVLVIYQDGKRPSGIPERFSGSNFGNKATLTISGTQAMDEADYYCQAWDRNTVVFGGGTKLTVLGQPKAAPSVTLFPPSSEELQANKATLVCLISDFYPGAVTVAWKADSSPVKAGVETTTPSKQSNNKYAASSYLSLTPEQWKSHRSYSCQVTHEGSTVEKTVAPTECS
notes: huIgG4 PAA; HC C33H66, LC C33L60 (same V region as C33B73); also called C33F78
- binding result (Human CD33-V-HSA [3]): no binding

B10: C3CB189 (bispecific antibody, human IgG4 S228P, kappa, lambda, F234A L235A)
heavy 1: not shown
light 1: not shown
heavy 2: QVQLQQSGPRLVRPSQTLSLTCAISGDSVFNNNAAWSWIRQSPSRGLEWLGRTYYRSKWLYDYAVSVKSRITVNPDTSRNQFTLQLNSVTPEDTALYYCARGYSSSFDYWGQGTLVTVSSASTKGPSVFPLAPCSRSTSESTAALGCLVKDYFPEPVTVSWNSGALTSGVHTFPAVLQSSGLYSLSSVVTVPSSSLGTKTYTCNVDHKPSNTKVDKRVESKYGPPCPPCPAPEAAGGPSVFLFPPKPKDTLMISRTPEVTCVVVDVSQEDPEVQFNWYVDGVEVHNAKTKPREEQFNSTYRVVSVLTVLHQDWLNGKEYKCKVSNKGLPSSIEKTISKAKGQPREPQVYTLPPSQEEMTKNQVSLTCLVKGFYPSDIAVEWESNGQPENNYKTTPPVLDSDGSFLLYSKLTVDKSRWQEGNVFSCSVMHEALHNHYTQKSLSLSLGK
light 2: QSALTQPASVSGSPGQSITISCTGTSSNIGTYKFVSWYQQHPDKAPKVLLYEVSKRPSGVSSRFSGSKSGNTASLTISGLQAEDQADYHCVSYAGSGTLLFGGGTKLTVLGQPKAAPSVTLFPPSSEELQANKATLVCLISDFYPGAVTVAWKADSSPVKAGVETTTPSKQSNNKYAASSYLSLTPEQWKSHRSYSCQVTHEGSTVEKTVAPTECS
notes: Fully human IgG4-PAA bispecific made by Fab-arm exchange; CD33 arm C33B904 (C33H252/C33L118), CD3 arm CD3B376 (CD3H219/CD3L150; F405L, R409K); also called C33B904 × CD3B376
- Kd [7]: 0.00089 nM
- Kd [8]: 0.363 nM
- Kd (human rCD3e): 151 nM
- Kd (cyno monkey rCD3e): 43.8 nM
- T cell activation (CD25) in human whole blood with Kasumi-1, median EC50 [9]: 0.085 nM
- T cell activation (CD25) in human whole blood with MOLM-13, median EC50 [9]: 0.037 nM
- T cell activation (CD25) with KG-1 target cells, median EC50 [9]: 0.0664 nM
- T cell activation (CD25) with Kasumi-1 target cells, median EC50 [9]: 0.0432 nM
- T cell activation (CD25) with MOLM-13 target cells, median EC50 [9]: 0.0283 nM
- T cell activation (CD25) with OCI-AML3 target cells, median EC50 [9]: 0.05 nM
- T cell-mediated cytotoxicity of KG-1, median EC50, 6 donors, 48 h [9]: 0.168 nM
- T cell-mediated cytotoxicity of Kasumi-1, median EC50, 6 donors, 48 h [9]: 0.05 nM
- T cell-mediated cytotoxicity of Kasumi-1 spiked in human whole blood, median EC50, 48 h [9]: 0.124 nM
- T cell-mediated cytotoxicity of MOLM-13, median EC50, 6 donors, 48 h [9]: 0.131 nM
- T cell-mediated cytotoxicity of MOLM-13 spiked in human whole blood, median EC50, 48 h [9]: 0.111 nM
- T cell-mediated cytotoxicity of OCI-AML3, median EC50, 6 donors, 48 h [9]: 0.183 nM
- ex vivo cytotoxicity of CD33+ blasts in AML patient whole blood, median EC50 [9]: 0.365 nM

Other lines, results leading:

- binding result (Human CD33-V-HSA [1]): no binding
- binding result (Human CD33-C2-HSA [2]): no binding
B5: C33B792 (antibody, human IgG4 S228P, lambda, F234A L235A)
heavy: not shown
light: SYELTQPPSVSVSPGQTASITCSGDKLGNKYASWYQQKPGQSPVLVIYQDTKRPSGIPERVSGSNSGNTATLTISGTQAMDEADYHCQAWDSSTVVFGGGTKLTVLGQPKAAPSVTLFPPSSEELQANKATLVCLISDFYPGAVTVAWKADSSPVKAGVETTTPSKQSNNKYAASSYLSLTPEQWKSHRSYSCQVTHEGSTVEKTVAPTECS
notes: huIgG4 PAA; OMNIRat campaign; also called C33H87/C33L35

- binding result (Human CD33-V-HSA [3]): no binding
- binding result (Human CD33-C2-HSA [4]): no binding
B6: C33B792 (antibody, human IgG4 S228P, lambda, F234A L235A)
heavy: not shown
light: SYELTQPPSVSVSPGQTASITCSGDKLGNKYASWYQQKPGQSPVLVIYQDTKRPSGIPERVSGSNSGNTATLTISGTQAMDEADYHCQAWDSSTVVFGGGTKLTVLGQPKAAPSVTLFPPSSEELQANKATLVCLISDFYPGAVTVAWKADSSPVKAGVETTTPSKQSNNKYAASSYLSLTPEQWKSHRSYSCQVTHEGSTVEKTVAPTECS
notes: huIgG4 PAA; HC C33H87, LC C33L35 (same V region as C33B87); also called C33F92

- binding result (Human CD33-C2-HSA [4]): no binding
B7: C33B836 (antibody, human IgG4 S228P, lambda, F234A L235A)
heavy: not shown
light: QSALTQPASVSGSPGQSITISCTGTSSDVGDYNYVSWYQQHPGKVPKLMIYDVSNRPSGVSNRFSGSMSGNTASLTISGLQAEDEADYYCSSYSSSSALEVFGGGTKLTVLGQPKAAPSVTLFPPSSEELQANKATLVCLISDFYPGAVTVAWKADSSPVKAGVETTTPSKQSNNKYAASSYLSLTPEQWKSHRSYSCQVTHEGSTVEKTVAPTECS
notes: huIgG4 PAA; HC C33H80, LC C33L73 (same V region as C33B48); also called C33F53

- binding result (Human CD33-C2-HSA [2]): no binding
B8: C33B836 (antibody, human IgG4 S228P, lambda, F234A L235A)
heavy: not shown
light: QSALTQPASVSGSPGQSITISCTGTSSDVGDYNYVSWYQQHPGKVPKLMIYDVSNRPSGVSNRFSGSMSGNTASLTISGLQAEDEADYYCSSYSSSSALEVFGGGTKLTVLGQPKAAPSVTLFPPSSEELQANKATLVCLISDFYPGAVTVAWKADSSPVKAGVETTTPSKQSNNKYAASSYLSLTPEQWKSHRSYSCQVTHEGSTVEKTVAPTECS
notes: huIgG4 PAA; OMNIRat campaign; also called C33H80/C33L73

- binding result [5]: no binding
- binding result [6]: no binding
B9: C33B909 (antibody, V domains shown)
VH: EVQLVESGGGLVQPGRSLRLSCVASGFTFDDYAIHWVRQAPGKGLEWVSGLSWNGGNIGYADSVKGRFTISRDNAKNSLYLQMNSLKTEDTAFYYCTKDTPYGDYFDYWGQGTLVTVSS
VL: DIQMTQSPSSVWASVGDRVTITCRASQGISSWLAWYQQQPGKAPNLLIYRSSSLQSGVPSRFSGSGSGTDFTLTISSLQPEDFATYYCQQDNSFPYTFGQGTKLEIKR
notes: OMNIMouse campaign; also called C33H249/C33L115

From patent publication US20190382481A1 (Janssen / Centocor, published 2019)
